Reference: paper PMC11239673, “Structural basis for the bi-specificity of USP25 and USP28 inhibitors” (EMBO Reports, 2024)
Values joined by “and” are separate entries in the source; they are usually repeats but may differ in a detail not shown here. Equal entries are not always repeated.

How the values were obtained:
Conditions in all cases: remark: other sources report otherwise
[1] = biological target: T1, full-length USP25 (USP25 1-1055) (human), Q9UHP3; assay: SEC-MALS; tetramer to dimers; 20 µM USP25fl with 60 µM AZ1, 45 min incubation at 4 °C; Superose 6 10/300 GL; 20 mM HEPES pH 8.0, 150 mM NaCl, 1 mM TCEP
T1 chain: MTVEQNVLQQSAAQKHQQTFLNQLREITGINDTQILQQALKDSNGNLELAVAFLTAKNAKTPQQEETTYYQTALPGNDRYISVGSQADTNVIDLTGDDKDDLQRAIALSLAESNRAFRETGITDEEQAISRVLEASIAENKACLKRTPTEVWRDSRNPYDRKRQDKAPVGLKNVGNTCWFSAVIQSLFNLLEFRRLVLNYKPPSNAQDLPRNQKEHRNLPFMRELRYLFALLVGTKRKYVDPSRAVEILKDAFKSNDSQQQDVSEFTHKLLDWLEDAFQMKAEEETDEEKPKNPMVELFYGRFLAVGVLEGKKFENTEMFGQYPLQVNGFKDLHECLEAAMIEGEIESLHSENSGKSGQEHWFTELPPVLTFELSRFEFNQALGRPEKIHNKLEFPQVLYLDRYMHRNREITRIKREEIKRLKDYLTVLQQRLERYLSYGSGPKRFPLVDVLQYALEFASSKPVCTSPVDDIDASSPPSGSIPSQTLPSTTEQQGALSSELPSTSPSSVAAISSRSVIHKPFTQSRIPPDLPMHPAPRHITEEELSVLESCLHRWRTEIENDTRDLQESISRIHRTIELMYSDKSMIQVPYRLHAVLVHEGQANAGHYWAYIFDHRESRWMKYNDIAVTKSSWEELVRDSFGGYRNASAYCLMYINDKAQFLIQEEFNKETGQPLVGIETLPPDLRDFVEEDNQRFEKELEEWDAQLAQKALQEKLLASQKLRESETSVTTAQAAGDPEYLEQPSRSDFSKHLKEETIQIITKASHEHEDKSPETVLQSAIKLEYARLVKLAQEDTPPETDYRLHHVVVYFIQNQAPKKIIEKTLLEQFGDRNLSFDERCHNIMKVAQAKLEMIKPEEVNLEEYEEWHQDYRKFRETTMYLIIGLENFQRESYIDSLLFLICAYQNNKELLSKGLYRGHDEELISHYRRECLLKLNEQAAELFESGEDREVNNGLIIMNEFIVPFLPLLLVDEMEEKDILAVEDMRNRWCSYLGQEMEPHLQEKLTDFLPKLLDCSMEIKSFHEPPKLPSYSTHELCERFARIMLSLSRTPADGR

[2] = biological target: T1, full-length USP25 (USP25 1-1055) …; assay: SEC-MALS; tetramer to dimers; 20 µM USP25fl with 60 µM VSM, 45 min incubation at 4 °C; Superose 6 10/300 GL; 20 mM HEPES pH 8.0, 150 mM NaCl, 1 mM TCEP
[3] = biological target: T1, full-length USP25 (USP25 1-1055) …; assay: SEC-MALS; tetramer to dimers; 10 µM USP25fl with 5, 10 or 20 µM AZ1, 45 min incubation at 4 °C; Superose 6 10/300 GL; 20 mM HEPES pH 8.0, 150 mM NaCl, 1 mM TCEP
[4] = biological target: T1, full-length USP25 (USP25 1-1055) …; assay: SEC-MALS; tetramer to dimers; 20 µM USP25fl with DMSO control, 45 min incubation at 4 °C; Superose 6 10/300 GL; 20 mM HEPES pH 8.0, 150 mM NaCl, 1 mM TCEP
[5] = biological target: T1, full-length USP25 (USP25 1-1055) …; assay: SEC-MALS; tetramer to dimers; 10 µM USP25fl with DMSO control, 45 min incubation at 4 °C; Superose 6 10/300 GL; 20 mM HEPES pH 8.0, 150 mM NaCl, 1 mM TCEP
[6] = biological target: T1, full-length USP25 (USP25 1-1055) …; assay: SEC-MALS; tetramer to dimers; 20 µM USP25fl with 60 µM racemic FT206, 45 min incubation at 4 °C; Superose 6 10/300 GL; 20 mM HEPES pH 8.0, 150 mM NaCl, 1 mM TCEP
[7] = biological target: T1, full-length USP25 (USP25 1-1055) …; assay: SEC-MALS; tetramer to dimers; 10 µM USP25fl with 5, 10 or 20 µM racemic FT206, 45 min incubation at 4 °C; Superose 6 10/300 GL; 20 mM HEPES pH 8.0, 150 mM NaCl, 1 mM TCEP

- percent dimers (with 60 µM AZ1) [1]: 80.8%
- percent dimers (with 60 µM VSM) [2]: 75%
- percent dimers (with 20 µM AZ1) [3]: 46%
- percent dimers (DMSO control) [4]: 26.2%
- percent dimers [5]: 25%
- percent dimers (DMSO control of the AZ1 series) [5]: 23%
- percent dimers (DMSO control of the FT206 series) [5]: 28%
- percent tetramers [5]: 75%
- stoichiometry N [5]: 4 and 2
- percent dimers (with 60 µM FT206) [6]: 77.7%
- percent dimers (with 10 µM FT206) [7]: 50%
- percent dimers (with 20 µM FT206) [7]: 76%
B1: full-length USP25 (USP25 1-1055), Q9UHP3 1-1055 (enzyme)
chain: MTVEQNVLQQSAAQKHQQTFLNQLREITGINDTQILQQALKDSNGNLELAVAFLTAKNAKTPQQEETTYYQTALPGNDRYISVGSQADTNVIDLTGDDKDDLQRAIALSLAESNRAFRETGITDEEQAISRVLEASIAENKACLKRTPTEVWRDSRNPYDRKRQDKAPVGLKNVGNTCWFSAVIQSLFNLLEFRRLVLNYKPPSNAQDLPRNQKEHRNLPFMRELRYLFALLVGTKRKYVDPSRAVEILKDAFKSNDSQQQDVSEFTHKLLDWLEDAFQMKAEEETDEEKPKNPMVELFYGRFLAVGVLEGKKFENTEMFGQYPLQVNGFKDLHECLEAAMIEGEIESLHSENSGKSGQEHWFTELPPVLTFELSRFEFNQALGRPEKIHNKLEFPQVLYLDRYMHRNREITRIKREEIKRLKDYLTVLQQRLERYLSYGSGPKRFPLVDVLQYALEFASSKPVCTSPVDDIDASSPPSGSIPSQTLPSTTEQQGALSSELPSTSPSSVAAISSRSVIHKPFTQSRIPPDLPMHPAPRHITEEELSVLESCLHRWRTEIENDTRDLQESISRIHRTIELMYSDKSMIQVPYRLHAVLVHEGQANAGHYWAYIFDHRESRWMKYNDIAVTKSSWEELVRDSFGGYRNASAYCLMYINDKAQFLIQEEFNKETGQPLVGIETLPPDLRDFVEEDNQRFEKELEEWDAQLAQKALQEKLLASQKLRESETSVTTAQAAGDPEYLEQPSRSDFSKHLKEETIQIITKASHEHEDKSPETVLQSAIKLEYARLVKLAQEDTPPETDYRLHHVVVYFIQNQAPKKIIEKTLLEQFGDRNLSFDERCHNIMKVAQAKLEMIKPEEVNLEEYEEWHQDYRKFRETTMYLIIGLENFQRESYIDSLLFLICAYQNNKELLSKGLYRGHDEELISHYRRECLLKLNEQAAELFESGEDREVNNGLIIMNEFIVPFLPLLLVDEMEEKDILAVEDMRNRWCSYLGQEMEPHLQEKLTDFLPKLLDCSMEIKSFHEPPKLPSYSTHELCERFARIMLSLSRTPADGR
